In patent publication US20230348603A1 (VERSEAU THERAPEUTICS, published 2023):

Columns and labels:
Human VSIG4-L-His [1] = biological target: T1, Human VSIG4-L-His (human, UniProt Q9Y279 20-283); test: SPR (FJB)
T1 construct: long isoform ECD with His tag; also called hVSIG4-L
T1 sequence: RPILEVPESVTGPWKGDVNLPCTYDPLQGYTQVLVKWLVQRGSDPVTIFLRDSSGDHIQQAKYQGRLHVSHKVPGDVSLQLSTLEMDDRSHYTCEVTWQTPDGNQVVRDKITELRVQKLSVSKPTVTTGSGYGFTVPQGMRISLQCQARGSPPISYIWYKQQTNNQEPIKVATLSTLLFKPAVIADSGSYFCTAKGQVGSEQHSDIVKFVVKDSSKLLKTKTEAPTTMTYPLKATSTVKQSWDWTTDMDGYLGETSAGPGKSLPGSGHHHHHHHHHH

[2] = biological target: T2, Cynomolgus Monkey VSIG4-L-His (cynomolgus monkey); test: SPR (FJB)
T2 construct: ECD with His tag; also called cyVSIG4-L; cyno VSIG4-L-His
T2 chain: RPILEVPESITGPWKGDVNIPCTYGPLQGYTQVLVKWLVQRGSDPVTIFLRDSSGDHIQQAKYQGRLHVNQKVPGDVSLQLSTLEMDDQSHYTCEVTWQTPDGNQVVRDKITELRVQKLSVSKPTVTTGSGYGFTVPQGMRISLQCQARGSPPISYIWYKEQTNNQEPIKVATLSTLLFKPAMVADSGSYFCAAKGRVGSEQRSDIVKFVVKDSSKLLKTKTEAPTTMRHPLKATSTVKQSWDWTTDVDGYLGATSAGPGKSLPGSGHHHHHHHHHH

Human VSIG4-L-Fc [3] = biological target: T3, Human VSIG4-L-Fc (human); test: ligand blocking of C3b, IgG
T3 construct: also called hVSIG4-L-Fc; hVSIG4-L

Human VSIG4-L-Fc [4] = biological target: T3, Human VSIG4-L-Fc; test: ligand blocking of iC3b, IgG
Human VSIG4-L-Fc [5] = biological target: T3, Human VSIG4-L-Fc; test: ELISA, IgG 50 nM on coated antigen;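 note: Mouse-human chimeric IgG4 antibodies incubated 1 h on plate-coated VSIG4 proteins, bound IgG detected with HRP-labelled anti-human IgG, irrelevant antibody and protein as specificity controls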
Human VSIG4-S-Fc = biological target: T4, Human VSIG4-S-Fc (human); test: ELISA, IgG 50 nM on coated antigen;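 note: Mouse-human chimeric IgG4 antibodies incubated 1 h on plate-coated VSIG4 proteins, bound IgG detected with HRP-labelled anti-human IgG, irrelevant antibody and protein as specificity controls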
T4 construct: short isoform ECD fused to human Fc1; also called hVSIG4-S

[6] = biological target: T2, Cynomolgus Monkey VSIG4-L-His; test: ELISA, IgG 50 nM on coated antigen;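 note: Mouse-human chimeric IgG4 antibodies incubated 1 h on plate-coated VSIG4 proteins, bound IgG detected with HRP-labelled anti-human IgG, irrelevant antibody and protein as specificity controls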
Mouse VSIG4-His = biological target: T5, Mouse VSIG4-His (mouse); test: ELISA, IgG 50 nM on coated antigen;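 note: Mouse-human chimeric IgG4 antibodies incubated 1 h on plate-coated VSIG4 proteins, bound IgG detected with HRP-labelled anti-human IgG, irrelevant antibody and protein as specificity controls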
T5 construct: ECD with His tag; also called mVSIG4
T5 chain: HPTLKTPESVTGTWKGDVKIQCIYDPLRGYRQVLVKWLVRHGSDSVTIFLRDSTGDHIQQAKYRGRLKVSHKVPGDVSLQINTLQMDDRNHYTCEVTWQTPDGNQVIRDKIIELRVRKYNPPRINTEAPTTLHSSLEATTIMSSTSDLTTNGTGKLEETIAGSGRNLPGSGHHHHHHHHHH

Human VSIG4-L-His [7] = biological target: T1, Human VSIG4-L-His; test: BLI, IgG on AHC sensor, antigen 100 nM
[8] = biological target: T2, Cynomolgus Monkey VSIG4-L-His; test: BLI, IgG on AHC sensor, antigen 100 nM
Human VSIG4-L-His [9] = biological target: T1, Human VSIG4-L-His; test: BLI (Octet), IgG on AHC sensor, antigen 100 nM
Human VSIG4-S-His = biological target: T6, Human VSIG4-S-His (human, UniProt Q9Y279 20-283); test: BLI (Octet), IgG on AHC sensor, antigen 100 nM
T6 construct: short isoform ECD with His tag; also called hVSIG4-S; VISG4-S-His
T6 sequence: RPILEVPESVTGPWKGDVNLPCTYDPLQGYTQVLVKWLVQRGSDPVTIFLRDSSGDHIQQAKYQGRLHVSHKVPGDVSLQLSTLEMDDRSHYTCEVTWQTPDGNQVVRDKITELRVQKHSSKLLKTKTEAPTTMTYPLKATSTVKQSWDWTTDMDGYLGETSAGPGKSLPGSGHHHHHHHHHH

[10] = biological target: T2, Cynomolgus Monkey VSIG4-L-His; test: BLI (Octet), IgG on AHC sensor, antigen 100 nM
[11] = biological target: T7, Human VSIG4-L-CHO (human VSIG4 long isoform on CHO-K1 cells) (human, UniProt Q9Y279 20-399); test: flow cytometry, CHO-K1 cells expressing hVSIG4-L
T7 construct: also called hVSIG4-L (flow cytometry)
T7 sequence: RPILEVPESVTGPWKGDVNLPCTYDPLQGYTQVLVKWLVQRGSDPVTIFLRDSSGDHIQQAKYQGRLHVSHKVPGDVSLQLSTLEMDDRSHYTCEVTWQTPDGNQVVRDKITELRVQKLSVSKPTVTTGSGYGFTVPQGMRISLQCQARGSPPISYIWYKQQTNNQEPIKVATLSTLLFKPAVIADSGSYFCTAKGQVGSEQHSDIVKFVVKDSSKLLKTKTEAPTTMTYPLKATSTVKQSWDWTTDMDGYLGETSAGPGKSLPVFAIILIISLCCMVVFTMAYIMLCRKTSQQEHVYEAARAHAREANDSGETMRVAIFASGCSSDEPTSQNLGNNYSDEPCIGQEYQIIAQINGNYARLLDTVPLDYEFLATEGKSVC

Human VSIG4-L-Fc [12] = biological target: T3, Human VSIG4-L-Fc; test: BLI binning on hVSIG4-L-Fc, competitor 12A08 first;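 note: normalized to binding of second antibody without first competitor antibody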
Human VSIG4-L-Fc [13] = biological target: T3, Human VSIG4-L-Fc; test: BLI binning on hVSIG4-L-Fc, competitor 12A12 first;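 note: normalized to binding of second antibody without first competitor antibody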
Human VSIG4-L-Fc [14] = biological target: T3, Human VSIG4-L-Fc; test: BLI binning on hVSIG4-L-Fc, competitor 13H11 first;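 note: normalized to binding of second antibody without first competitor antibody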
Human VSIG4-L-Fc [15] = biological target: T3, Human VSIG4-L-Fc; test: BLI binning on hVSIG4-L-Fc, competitor 14C05 first;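 note: normalized to binding of second antibody without first competitor antibody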
Human VSIG4-L-Fc [16] = biological target: T3, Human VSIG4-L-Fc; test: BLI binning on hVSIG4-L-Fc, competitor 14D12 first;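 note: normalized to binding of second antibody without first competitor antibody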
Human VSIG4-L-Fc [17] = biological target: T3, Human VSIG4-L-Fc; test: BLI binning on hVSIG4-L-Fc, competitor 15A06 first;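 note: normalized to binding of second antibody without first competitor antibody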
Human VSIG4-L-Fc [18] = biological target: T3, Human VSIG4-L-Fc; test: BLI binning on hVSIG4-L-Fc, competitor 15C03 first;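 note: normalized to binding of second antibody without first competitor antibody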
Human VSIG4-L-Fc [19] = biological target: T3, Human VSIG4-L-Fc; test: BLI binning on hVSIG4-L-Fc, competitor 15C04 first;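 note: normalized to binding of second antibody without first competitor antibody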
Human VSIG4-L-Fc [20] = biological target: T3, Human VSIG4-L-Fc; test: BLI binning on hVSIG4-L-Fc, competitor 16E03 first;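 note: normalized to binding of second antibody without first competitor antibody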
Human VSIG4-L-Fc [21] = biological target: T3, Human VSIG4-L-Fc; test: BLI binning on hVSIG4-L-Fc, competitor 16E10 first;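 note: normalized to binding of second antibody without first competitor antibody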
Human VSIG4-L-Fc [22] = biological target: T3, Human VSIG4-L-Fc; test: ligand competition ELISA (FJB), blocked ligand C3b
Human VSIG4-L-Fc [23] = biological target: T3, Human VSIG4-L-Fc; test: ligand competition ELISA (FJB), blocked ligand iC3b
[24] = biological target: T7, Human VSIG4-L-CHO (human VSIG4 long …); test: flow cytometry (FJB), 200 nM mAb, huVSIG4-L CHO-K1 cells
[25] = biological target: T7, Human VSIG4-L-CHO (human VSIG4 long …); test: flow cytometry (FJB), 200 nM mAb, huVSIG4-L CHO-K1 over parental CHO-K1

T4 sequence (chain, as listed by the source limits assumed): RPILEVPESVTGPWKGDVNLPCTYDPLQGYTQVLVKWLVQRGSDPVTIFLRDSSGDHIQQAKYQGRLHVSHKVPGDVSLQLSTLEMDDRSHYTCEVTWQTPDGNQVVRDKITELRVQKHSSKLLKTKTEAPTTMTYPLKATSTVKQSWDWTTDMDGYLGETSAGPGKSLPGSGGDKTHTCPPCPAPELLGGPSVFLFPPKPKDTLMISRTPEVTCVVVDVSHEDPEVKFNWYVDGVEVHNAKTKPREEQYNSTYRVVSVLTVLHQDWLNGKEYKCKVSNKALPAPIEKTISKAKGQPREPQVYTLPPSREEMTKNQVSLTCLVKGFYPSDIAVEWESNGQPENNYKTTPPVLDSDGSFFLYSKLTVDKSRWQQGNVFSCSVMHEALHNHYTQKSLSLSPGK

| Binder | Kd (Human VSIG4-L-His [1]) [nM] | Kd [2] [nM] | Percent Blocking C3b (Human VSIG4-L-Fc [3]) [%] | Percent Blocking iC3b (Human VSIG4-L-Fc [4]) [%] | ELISA OD450 (Human VSIG4-L-Fc [5]) [OD450] | ELISA OD450 (Human VSIG4-S-Fc) [OD450] | ELISA OD450 [6] [OD450] | ELISA OD450 (Mouse VSIG4-His) [OD450] | Kd (Human VSIG4-L-His [9]) [nM] | Kd [10] [nM] | EC50 [11] [nM] | normalized maximum binding nm shift (Human VSIG4-L-Fc [12]) [normalized] | normalized maximum binding nm shift (Human VSIG4-L-Fc [13]) [normalized] | normalized maximum binding nm shift (Human VSIG4-L-Fc [14]) [normalized] | normalized maximum binding nm shift (Human VSIG4-L-Fc [15]) [normalized] | normalized maximum binding nm shift (Human VSIG4-L-Fc [16]) [normalized] | normalized maximum binding nm shift (Human VSIG4-L-Fc [17]) [normalized] | normalized maximum binding nm shift (Human VSIG4-L-Fc [18]) [normalized] | normalized maximum binding nm shift (Human VSIG4-L-Fc [19]) [normalized] | normalized maximum binding nm shift (Human VSIG4-L-Fc [20]) [normalized] | further results |
| --- | --- | --- | --- | --- | --- | --- | --- | --- | --- | --- | --- | --- | --- | --- | --- | --- | --- | --- | --- | --- | --- |
| 16E10 mouse/human chimeric IgG4 (S228P) kappa (antibody, V domains shown) VH: QVQLQQSGAELVRPGTSVKISCKASGYTFTNYWLGWVKQRPGHGLEWIGDIYPGGGYTNYNEKFKGKATLTADTSSSTAYMQLSSLTSEDSAVYFCAKFYYYGSSYYFDSWGQGTTLTVSS VL: DIVLTQSPSSLSVSAGEKVTLSCKSSQSLLNSGNQENYLAWYQQKPGQPPKLLIYGASTRESGVPDRFTGSGSGTDFTLTISSVQAEDLAVYYCQNDHSYPLTFGAGTKLELKR | 66.1 | 1.3 | 33 | 72 | 4.44 | 2.04 | 4.5 | 0.048 | 68.5 | 37.6 | 1 | 0 | 0.25 | 0.65 | 0.74 | 0.69 | 0.77 | 0.88 | 0.89 | 0.1 | KD relative to parental chimera (Human VSIG4-L-His [7]): 1 fold; KD relative to parental chimera [8]: 1 fold; Kd (Human VSIG4-S-His): 75.3 nM; normalized maximum binding nm shift (Human VSIG4-L-Fc [21]): 0.15 normalized; IC50 (Human VSIG4-L-Fc [22]): 0.7 nM; IC50 (Human VSIG4-L-Fc [23]): 3.6 nM; Binding (200 nM) MFI [24]: 14700 MFI; Binding (200 nM) Fold-Over-Parental [25]: 50 fold |
| 12A08 mouse/human chimeric IgG4 (S228P) kappa (antibody, V domains shown) VH: EVMLVESGGGLVKPGGSLKLSCAASGFTFDDFYMYWVRQTPEKRLEWVASISDGGTYTYYPDSVKGRFTISRDNAKNTLYLQLSSLKSEDTAMYYCARGVDKYYYAMDYWGQGTSVTVSS VL: QILLTQSPAIMSASPGEKVTITCSASSSVSYMHWFQQKPGTSPKLWIYSTSNLASGVPARFSGSGSGTSYSLTISRMEAEDAATYYCQQRSSYPLTFGAGTKLELKR | 6.7 | 3.9 | 96 | 98 | 4.44 | 3.37 | 4.43 | 0.056 | 20.6 | 15.7 | 6.8 | 0.1 | 0.78 | 0.69 | 0.72 | 0.7 | 0.76 | 0.89 | 0.94 | 0.1 | Kd (Human VSIG4-S-His): 18.8 nM; normalized maximum binding nm shift (Human VSIG4-L-Fc [21]): 0.44 normalized; IC50 (Human VSIG4-L-Fc [22]): 1 nM; IC50 (Human VSIG4-L-Fc [23]): 0.4 nM; Binding (200 nM) MFI [24]: 121000 MFI; Binding (200 nM) Fold-Over-Parental [25]: 357 fold |
| 15C04 mouse/human chimeric IgG4 (S228P) kappa (antibody, V domains shown) VH: QIQLQESGPSLVRPSQTLSLTCSVTGDSITSGYWNWIRKFPGDKLEYLGYISYSGFTYYNPSLKSRISITRDTSKNQYYLQLNSVTTEDTATYYCASSYYGSSLGFPYWGQGTLVTVSA VL: DVVMTQTPLSLPVSLGDQASISCRSSQSLVHSNGNTYLHWYLQKPGQSPKLLIYKVSNRFSGVPDRFSGSGSGTDFTLKISRVEAEDLGVYFCSQSTHVPWTFGGGTKLEIKR | 5.4 | 15.6 | 93 | 94 | 4.43 | 3.28 | 4.53 | 0.052 | 25.4 | 183 | 8.9 | 0.8 | 0.82 | 0.68 | 0.72 | 0.72 | 0.08 | 0.81 | 0.16 | 0.74 | normalized maximum binding nm shift (Human VSIG4-L-Fc [21]): 0.92 normalized; IC50 (Human VSIG4-L-Fc [22]): 19.7 nM; IC50 (Human VSIG4-L-Fc [23]): 17 nM; Binding (200 nM) MFI [24]: 53200 MFI; Binding (200 nM) Fold-Over-Parental [25]: 73 fold |
